This is an account of results in US20120301468A1, “ANTI-MN ANTIBODIES AND METHODS OF USING SAME” (BAYER HEALTHCARE LLC, priority 2005, published 2012).

The target of the experiment is human MN protein, entire extra-cellular domain with a C-terminal histag, expressed in HKB-11 cells (human), Q16790. Briefly: SPR, BIAcore 3000, IgG captured by anti-human IgG Fc, MN as analyte, 1:1 Langmuir fit. The conditions noted are these: remark: other sources report otherwise.

B1: 3a4 full-length human IgG1 (antibody, V domains shown)
VH: QVELVESGGGLVQPGGSLRLSCAASGFTFSDYSINWVRQAPGKGLEYVSNISYSGSSTYYADSVKGRFTISRDNSKNTLYLQMNSLRAEDTAVYYCARFKYSGGSDSWGQGTLVTVSS
VL: DIELTQPPSVSVAPGQTARISCSGDNLPDFYVHWYQQKPGQAPVLVISEDNKRPSGIPERFSGSNSGNTATLTISGTQAEDEADYYCSTYGYTYSYSVFGGGTKLTVL
Take B1: the Kd was 1 nM.
